Source: US20130280276A1 (Daiichi Sankyo, published 2013)
Each block holds one binder with its values, some of them ahead of it.

Target: mouse Siglec-15 (mouse)
Experiment: cell-based or functional assay

B1: MOR09892 (antibody, human IgG2, lambda, V domains shown)
VH: QVQLVESGGGLVQPGGSLRLSCAASGFTFSSYAMHWVRQAPGKGLEWVSYISYSGSNTYYADSVKGRFTISRDNSKNTLYLQMNSLRAEDTAVYYCARGWGGFDYWGQGTLVTVSS
VL: DIELTQPPSVSVAPGQTARISCSGDNLPNRYVHWYQQKPGQAPVLVIYDDNNRPSGIPERFSGSNSGNTATLTISGTQAEDEADYYCQSRDLHYSPVFGGGTKLTVLG
- TRAP activity of mouse osteoclasts formed (RANKL-stimulated mouse bone marrow nonadherent cells): ≥ 13 ng/mL

B3: MOR09281 (antibody, human IgG2, lambda, V domains shown)
VH: QVQLVESGGGLVQPGGSLRLSCAASGFTFSNYWMSWVRQAPGKGLEWVSLISYSGSTTYYADSVKGRFTISRDNSKNTLYLQMNSLRAEDTAVYYCARDTPIGMDFWGQGTLVTVSS
VL: DIELTQPPSVSVAPGQIARISCSGDNLGSYYAYWYQQKPGQAPVLVIYGDNDRPSGIPERFSGSNSGNTATLTISGTQAEDEADYYCSSYDIVQPYVFGGGTKLTVLG
- TRAP activity of mouse osteoclasts formed (RANKL-stimulated mouse bone marrow nonadherent cells): ≥ 13 ng/mL

Second part, the binder after the results:

- TRAP activity of mouse osteoclasts formed (RANKL-stimulated mouse bone marrow nonadherent cells): ≥ 13 ng/mL
B2: MOR10110 (antibody, human IgG2, lambda, V domains shown)
VH: QVQLVESGGGLVQPGGSLRLSCAASGFTFTNYAMNWVRQAPGKGLEWVSYISYSSSNTYYADSVKGRFTISRDNSKNTLYLQMNSLRAEDTAVYYCARGAGLGYDVWGQGTLVTVSS
VL: DIELTQPPSVSVAPGQTARISCSGDNLRSKYVYWYQQKPGQAPVLVIYDTNDRPSGIPERFSGSNSGNTATLTISGTQAEDEADYYCQTYDMTSQDVFGGGTKLTVLG

- TRAP activity of mouse osteoclasts formed (RANKL-stimulated mouse bone marrow nonadherent cells): ≥ 13 ng/mL
B4: MOR09898 (antibody, human IgG2, lambda, V domains shown)
VH: QVQLVESGGGLVQPGGSLRLSCAASGFTFSNYWMTWVRQAPGKGLEWVSFISYSGSTTYYADSVKGRFTISRDNSKNTLYLQMNSLRAEDTAVYYCAREGTSSMFDVWGQGTLVTVSS
VL: DIELTQPPSVSVAPGQTARISCSGDALRSYYASWYQQKPGQAPVLVIYDDNKRPSGIPERFSGSNSGNTATLTISGTQAEDEADYYCASFTYMSDFVFGGGTKLTVLG
